Molecular target: human BKCa (Slo1) RCK1 domain (322IIE...HDP667) carrying the D362A/367A mutations (human)
Assay: SEC

Substance: human BKCa (Slo1) RCK1 domain (322IIE...HDP667) carrying the D362A/367A mutations (domain or fragment)
- stoichiometry N: > 16

— article PMC2912072
